Experimental findings from US20180194853A1 (published 2018) are described below.

One assay deals with T1, recombinant human IL-2Rβ (human, UniProt P14784 27-240).
T1 construct: Recombinant chain immobilised on the SPR chip and used as ELISA antigen; also called CD122; interleukin 2 receptor β
T1 sequence (looked up): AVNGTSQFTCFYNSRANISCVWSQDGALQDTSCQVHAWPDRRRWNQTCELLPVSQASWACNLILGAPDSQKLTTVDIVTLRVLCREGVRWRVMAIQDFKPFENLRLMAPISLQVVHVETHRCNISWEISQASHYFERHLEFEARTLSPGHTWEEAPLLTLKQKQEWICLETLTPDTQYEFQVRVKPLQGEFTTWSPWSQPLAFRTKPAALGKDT
Description: SPR, receptor chain immobilised on the chip, antibody flowed over. As for the experimental part:
(§1) Association/dissociation of the anti-IL-2Rβ/γc bispecific antibody to/from the receptor chains was measured in Surface Plasmon Resonance using recombinant IL-2Rβ or γc chains immobilised on a chip, and flowing various concentrations of the antibody over the surface.

A further assay concerns the target T2, recombinant human γc (human, UniProt P31785 23-262).
T2 construct: Recombinant chain immobilised on the SPR chip and used as ELISA antigen; also called common γ chain; CD132
T2 sequence (looked up): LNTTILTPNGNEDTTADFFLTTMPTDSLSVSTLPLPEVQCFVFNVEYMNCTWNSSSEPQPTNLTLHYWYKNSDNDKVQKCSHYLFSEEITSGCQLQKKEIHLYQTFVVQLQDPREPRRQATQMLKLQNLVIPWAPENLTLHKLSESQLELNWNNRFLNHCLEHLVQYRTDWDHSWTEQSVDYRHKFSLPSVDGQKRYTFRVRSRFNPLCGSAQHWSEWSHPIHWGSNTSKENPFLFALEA
The assay is described as above. As for the experimental part: as §1

B1: bispecific anti-IL-2Rβ/γc antibody P2H7/P2B9 (bispecific antibody)
chain 1: not shown
chain 2: QVQLQESGPGLVKPSETLSLTCTVSGGSISSSSYYWGWIRQPPGKGLEWIGSIYYSGSTYYNPSLKSRVTISVDTSKNQFSLKLSSVTAADTAVYYCAGDILTGYALDYWGQGTLVTVSSGGGGSGGGGSGGGGSSYELTQPPSMSVSPGQTARITCSGDALPKQFAFWYQQKPGQAPVLVIYKDTERPSGIPERFSGSSSGTTVTLTITGVQAEDEADYYCQSPDSSGTVEVFGGGTKLTVLNSGAGTAAATHTCPPCPAPEAAGGPSVFLFPPKPKDTLMISRTPEVTCVVVDVSHEDPEVKFNWYVDGVEVHNAKTKPREEQYNSTYRVVSVLTVLHQDWLNGKEYKCKVSNKALPAPIEKTISKAKGQPREPQVCTLPPSRDELTKNQVSLSCAVKGFYPSDIAVEWESNGQPENNYKTTPPVLDSDGSFFLVSKLTVDKSRWQQGNVFSCSVMHEALHNHYTQKSLSLSPGK
For B1, the Kd amounted to 101 nM with recombinant human IL-2Rβ and 79.8 nM with recombinant human γc.
